Assay results taken from patent publication US20140228540A1, “POLYPEPTIDES THAT BIND TISSUE INHIBITOR OF METALLOPROTEINASE TYPE THREE (TIMP-3), COMPOSITIONS AND METHODS” (Amgen Inc., priority 2009, published 2014).

Experiments:
HTB-94 cells = experiment: Accumulation of TIMP-3 in the medium of cultured HTB-94 cells; type: cell-based
Procedure: This example describes an assay to evaluate the accumulation of TIMP-3 in the medium of cultured cells. HTB-94™ cells (a chondrocytic cell line available from the American Type Culture Collection, Manassas, Va.) are plated to 24-well tissue culture plates at 1×10̂5 cells per well in 1 ml growth medium (RPM11640, 10% FBS, 1% PSG), and incubated at 37 C, 5% CO2 overnight. The cells are then washed once with PBS, and the wells are replenished with 250 microL serum-free medium (RPM11640, 1% PSG; designated SF in the tables below) to which is added the polypeptide being tested or a control (for example medium containing heparin, 1 mg/ml). Proteins to be tested are diluted to appropriate concentrations, for example as shown in the Tables below, and added to the cells. Cells are then incubated at 37 C, 5% CO2 for two additional days, day 2 conditioned medium (CM) samples are collected and clarified by centrifugation (i.e., for 5 minutes at 10K RPM) and the supernatant fluid is collected and stored at −20 C until assayed. Analysis is done on 100 microL CM samples, either by Western blot or by using a standard human TIMP-3 ELISA as per the manufacturer's protocol (R&D Systems Inc., Minneapolis, Minn.).

A549 cells = experiment: Binding and internalization of exogenous TIMP-3 by confocal microscopy; type: cell-based, human; details: in the presence of heparin
Procedure: This example describes the internalization of exogenous TIMP-3 as examined by confocal microscopy. A549 cells (a continuous tumor-cell line from a human lung carcinoma with properties of type II alveolar epithelial cells, either wild-type or A549 cells lacking the LRP-1 gene) were incubated typically with 1 microG/ml TIMP-3 for 30 minutes at 4 degrees, with or without various pre-treatments (including heparin), then washed, fixed and stained with a fluorescently labeled anti-TIMP-3 antibody, or washed and then incubated further at 4 or 37 degrees before fixation and staining. Cells were also assayed for the accumulation of TIMP-3 in the culture medium, by Western blot or ELISA, substantially as described herein.

MMP-13 = MMP-13 (Homo sapiens, UniProt P45452); experiment: TIMP-3 inhibition of MMP-13 (TIMP-3 alone); type: biochemical; details: TIMP-3 at 0.25 nM, 1.5 nM MMP-13, absence of any antibody
Source text: This Example described MMP-13 Inhibition Assays useful for measuring the effect(s) of TIMP-3 binding proteins (also referred to as test molecules, including LRP-1 peptides and antibodies to TIMP-3) on the ability of TIMP-3 to inhibit MMP-13. First, a titration of TIMP-3 inhibition of MMP-13 is run to empirically determine the IC50 of TIMP-3. […] Briefly, test molecules are titrated in assay buffer and added to black polystyrene 96 or 384 well assay plate (Griener Bio-One, Germany). […] Then recombinant TIMP-3 is diluted in assay buffer (20 mM Tris, 10 mM CaCl2, 10 uM ZnCl2, 0.01% Brij 35 (Calbiochem/EMD, San Diego, Calif.), pH 7.5) to a previously determined concentration (for example, TIMP-3's IC70 with 3 nM being a typical concentration), added to the test molecules and rotated for 10 minutes at room temperature. […]
None of the 22 antibodies evaluated adversely affected the ability of TIMP-3 to inhibit MMP-13, nor did they have an effect upon MMP-13 itself. In the TIMP-3 accumulation assay, the antibodies were evaluated for reproducible, titratable increase in the accumulation of TIMP-3 in supernatant fluid at levels of at least about 1.5 times higher than that observed with a negative control antibody. […]

cartilage-explants = details: addition of the protein to explants; cited from earlier work
[1] = tested on: rat medial meniscal tear model of osteoarthritis; details: intra-articular injection; cited from earlier work
TIMP-3 = experiment: Binding ELISA of LRP-1 peptides to TIMP-3 (Table 2; format and species not specified); design: species or system human or mouse
[2] = target: T1, inhibition of MMP-13 by TIMP-3 (Homo sapiens, UniProt P35625); experiment: MMP-13 inhibition assay: effect of test molecules on inhibition of MMP-13 by TIMP-3; type: biochemical
T1 construct: purchased Calbiochem/EMD (active MMP-13)
T1 sequence (P35625 24-211): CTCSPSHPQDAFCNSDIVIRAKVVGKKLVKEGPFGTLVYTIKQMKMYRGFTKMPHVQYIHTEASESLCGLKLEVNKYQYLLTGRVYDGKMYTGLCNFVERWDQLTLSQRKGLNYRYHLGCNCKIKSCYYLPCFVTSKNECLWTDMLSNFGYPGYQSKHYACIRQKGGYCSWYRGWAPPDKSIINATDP
Procedure: Briefly, test molecules are titrated in assay buffer and added to black polystyrene 96 or 384 well assay plate (Griener Bio-One, Germany). The concentrations of the test molecules are dependant on the activity of the molecule; for example, titrations may begin at 1000, 2000 or 3000 nM and use five-fold dilutions for titration, although other types of titrations may be used or a single concentration may be tested. […] Active MMP-13 (Calbiochem/EMD,) is diluted in assay buffer to give a final assay concentration of 1.46 nM added to the test molecule titration/TIMP-3 mixture and incubated for 10 minutes at room temperature in a final volume of 50 microL. Alternatively, pro-MMP-13 (R & D Systems, Minneapolis, Minn.) is activated with aminophenyl mercuric acetate (APMA; Calbiochem/EMD,) for 2 hours at 37 degrees C., and used in the assay.
A fluorogenic substrate such as Mca-PLGL-Dpa-AR-NH2 Fluorogenic MMP Substrate or Mca-KPLGL-Dpa-AR-NH2 Fluorogenic Peptide Substrate (R & D Systems) is prepared to a final assay concentration of 20 microM in assay buffer, and added to the MMP-13 enzyme/huTIMP-3/test molecule solution. MMP-13 activity is measured kinetically for 20 minutes using Molecular Devices fluorescent plate reader. The effect of the molecules being tested is expressed as percent of expected maximum TIMP-3 inhibition of MMP-13 enzymatic activity.

Question: Which results are given for heparin [reference compound]?
Answer: TIMP-3 (ng/ml) in conditioned medium (HTB-94 cells; Table 5, heparin control (1 mg/ml per method)): 10.98 ng/mL; TIMP-3 (ng/ml) in conditioned medium (HTB-94 cells; Table 6, heparin control (1 mg/ml per method)): 14.55 ng/mL; TIMP-3 (ng/ml) in conditioned medium (HTB-94 cells; Table 7, heparin control (1 mg/ml per method)): 26.15 ng/mL; TIMP-3 (ng/ml) in conditioned medium (HTB-94 cells; Table 8, heparin control (1 mg/ml per method)): 17.31 ng/mL; Binding of TIMP-3 to the cell surface (A549 cells): decreased

B1: TIMP-3: tissue inhibitor of metalloproteinase 3, recombinant (protein, UniProt P35625 24-211, looked up)
Metalloproteinase inhibitor 3: T1 sequence (P35625 24-211)
Question: For B1, which “inhibition of MMP-13 activity” value (MMP-13) is on record?
Answer: 54%

Question: And the “cytokine-induced degradation of cartilage-explants” value (cartilage-explants)?
Answer: prevents cytokine-induced degradation

Question: What about the cartilage damage [1] of the same molecule?
Answer: reduces cartilage damage

B2: Cluster II: LRP-1 peptide, amino acids 854-1184 of LRP-1; contains 8 ligand binding domains (protein)
chain: CQPGEFACANSRCIQERWKCDGDNDCLDNSDEAPALCHQHTCPSDRFKCENNRCIPNRWLCDGDNDCGNSEDESNATCSARTCPPNQFSCASGRCIPISWTCDLDDDCGDRSDESASCAYPTCFPLTQFTCNNGRCININWRCDNDNDCGDNSDEAGCSHSCSSTQFKCNSGRCIPEHWTCDGDNDCGDYSDETHANCTNQATRPPGGCHTDEFQCRLDGLCIPLRWRCDGDTDCMDSSDEKSCEGVTHVCDPSVKFGCKDSARCISKAWVCDGDNDCEDNSDEENCESLACRPPSHPCANNTSVCLPPDKLCDGNDDCGDGSDEGELCDQ
Question: For B2, which “Binding to TIMP-3 (affinity, in words)” value (TIMP-3) is on record?
Answer: submicromolar affinity

Question: And the “Effect on TIMP-3's inhibition of MMP-13 (in words)” value [2]?
Answer: minimal effect

Question: What about the “TIMP-3 (ng/ml) in conditioned medium” value (HTB-94 cells; Table 5, polypeptide 0.5 microM, listed as C II (prep 1)) of the same molecule?
Answer: 1.99 ng/mL

Question: And the “TIMP-3 (ng/ml) in conditioned medium” value (HTB-94 cells; Table 5, polypeptide 0.5 microM, listed as C II (prep 2))?
Answer: 1.35 ng/mL

Question: And the “TIMP-3 (ng/ml) in conditioned medium” value (HTB-94 cells; Table 5, polypeptide 1 microM, listed as C II (prep 1))?
Answer: 2.23 ng/mL

Question: And the “TIMP-3 (ng/ml) in conditioned medium” value (HTB-94 cells; Table 5, polypeptide 1 microM, listed as C II (prep 2))?
Answer: 1.71 ng/mL

Question: And the “TIMP-3 (ng/ml) in conditioned medium” value (HTB-94 cells; Table 5, polypeptide 2 microM, listed as C II (prep 1))?
Answer: 5.18 ng/mL

Question: What about the “TIMP-3 (ng/ml) in conditioned medium” value (HTB-94 cells; Table 5, polypeptide 2 microM, listed as C II (prep 2)) of the same molecule?
Answer: 1.92 ng/mL

Question: What about the “TIMP-3 (ng/ml) in conditioned medium” value (HTB-94 cells; Table 6, peptides 2 microM) of the same molecule?
Answer: 8.49 ng/mL

Question: What about the “TIMP-3 (ng/ml) in conditioned medium” value (HTB-94 cells; Table 7, peptides 2 microM) of the same molecule?
Answer: 13.42 ng/mL

Question: And the “TIMP-3 (ng/ml) in conditioned medium” value (HTB-94 cells; Table 8, polypeptide 0.5 microM)?
Answer: 1.59 ng/mL

Question: What about the “TIMP-3 (ng/ml) in conditioned medium” value (HTB-94 cells; Table 8, polypeptide 1 microM) of the same molecule?
Answer: 1.94 ng/mL

Question: And the “TIMP-3 (ng/ml) in conditioned medium” value (HTB-94 cells; Table 8, polypeptide 2 microM)?
Answer: 2.76 ng/mL

Question: What about the “Accumulation of TIMP-3 in conditioned medium by Western blot” value (HTB-94 cells; Western blot) of the same molecule?
Answer: enhanced accumulation of TIMP-3
